Reference: patent US20210308188A1, “CELL CLUSTER INCLUDING OLFACTORY NEURON OR PRECURSOR CELL THEREOF, AND METHOD FOR PRODUCING SAME” (SUMITOMO CHEMICAL COMPANY, LIMITED, priority 2018, published 2021)

Legend:
human ES cells = experiment: Study for addition-concentration of BMP signaling pathway-activating substance in cell cluster production (Experiment 7); type: cell-based
Procedure: In Experiment 7, a study of cell cluster production efficiency was performed for concentration of the BMP signaling pathway-activating substance in step (2), using human ES cells. The same experimental manipulations as in Experiment 2 (see the upper section of FIG. 8) were performed, and the concentration of BMP4 in the medium in step (2) was set to 7 conditions of 0.025 nM, 0.1 nM, 0.25 nM, 0.5 nM, 1.5 nM, 5 nM, and addition-free control.
On day 28 after the start of suspension culturing, bright-field observation was performed with an inverted microscope.
In addition, evaluation was performed for the cell clusters formed by adding each concentration of BMP4 according to the following four stages: cell cluster in a form close to spherical, whose 80% or more of the entire circumference was covered with non-neural epithelial tissue part (Grade 1, example=FIG. 20A); cell cluster whose 40% to 80% of the entire circumference was covered with non-neural epithelial tissue part or cell cluster in a distorted form (Grade 2, example=FIG. 20B); cell cluster whose ratio of non-neural epithelial tissue parts in the surface of the cell cluster was 40% or less (Grade 3, example=FIG. 20C); and cell cluster in which no non-neural epithelial tissue part was formed (Grade 4, example=FIG. 20D). The evaluation was performed by bright-field observation with an inverted microscope. As a result, non-neural epithelial tissues were not observed under the culture condition without adding of BMP4, as shown in FIG. 20E. Under the culture conditions in which 0.5 nM or more BMP4 was added in step (2), the Grade 1 cell clusters in a form close to a sphere, whose 80% or more of the entire circumference was covered with the non-neural epithelial tissue parts, were formed with high efficiency.

human iPS cells = experiment: Study for time to add BMP signaling pathway-activating substance in cell cluster production (Experiment 11); type: cell-based; details: observed day 13
Procedure: In Experiment 11, study of cell cluster production efficiency was performed for time to add the BMP signaling pathway-activating substance, that is, the start time of step (2), by changing the time to add the BMP signaling pathway-activating substance from day 1 to day 6 after the start of suspension culturing, using human iPS cells. The experiments were performed in accordance with the procedures shown in the upper section of FIG. 25, and the same experimental manipulations as in Experiment 3 were performed except for those specifically indicated.
Maintenance-cultured human iPS cells were subjected to step (a), and then the human iPS cells dispersed into single cells were suspended into 100 μl of a serum-free medium in a non-cell-adhesive 96-well three-dimensional culture vessel (PrimeSurface 96 slit-well plate, MS-9096S, manufactured by Sumitomo Bakelite Co., Ltd.) to be 1×10^4 cells per well, and the cells were suspension-cultured under conditions of 37° C., 5% CO2. At the start of suspension culturing (day 0 after the start of suspension culturing, start of step (1)), Y27632 (final concentration 20 μM), IWP-2 (final concentration 2 μM) and SB-431542 (final concentration 1 μM) were added to the serum-free medium.
On any of days 1, 2, 3, 4, and 6 after the start of suspension culturing, a serum-free medium being free of Y27632 and containing IWP-2, SB-431542 and BMP4 was added at 100 μl per well (start of step (2)). BMP4 was added to the medium at 3 nM to be a final concentration in the well of 1.5 nM.
In addition, on day after the addition of a serum-free medium containing BMP4, the medium was half exchanged with a serum-free medium being free of Y27632 and BMP4 and containing SB-431542, K02288, FGF2, Heparin Sodium, and EGF (start of step (3c)). K02288, FGF2, Heparin Sodium, and EGF were added to the medium at 20 μM, 40 ng/ml, 20 μg/ml, and 40 ng/ml, respectively, to be final concentrations in the well were 10 μM, 20 ng/ml, 10 μg/ml, and 20 ng/ml. […]

B1: BMP4: BMP signaling pathway-activating substance, manufactured by R&D Systems (protein, UniProt P12644 293-408, looked up)
Bone morphogenetic protein 4: SPKHHSQRARKKNKNCRRHSLYVDFSDVGWNDWIVAPPGYQAFYCHGDCPFPLADHLNSTNHAIVQTLVNSVNSSIPKACCVPTELSAISMLYLDEYDKVVLKNYQEMVVEGCGCR
quality evaluation grade of cell clusters (circumference covered with non-neural epithelial tissue part) (human ES cells; 0.5 nM or more BMP4 added in step (2), day 28, formed with high efficiency): Grade 1 (cell cluster in a form close to spherical, whose 80% or more of the entire circumference was covered with non-neural epithelial tissue part) | diameter of spherical cell clusters formed (human ES cells; all BMP4 concentrations (0.025 to 5 nM) in step (2), day 28 after start of suspension culturing, bright-field observation): around 600 μm | concentration of BMP4 added in step (2) at which Grade 1 cell clusters were formed with high efficiency (human ES cells; day 28, bright-field observation): ≥ 0.5 nM | formation of non-neural epithelial tissue on the surface of the cell aggregate (human iPS cells; BMP4 1.5 nM added on any of days 1, 2, and 3 after start of suspension culturing): a non-neural epithelial tissue was formed on the surface of the cell aggregate | formation of cell aggregates having non-neural epithelial tissues on the surface with larger diameter (human iPS cells; BMP4 1.5 nM added on day 2 after start of suspension culturing): most efficiently and stably formed | formation of non-neural epithelial tissue on the surface of the cell aggregates (human iPS cells; BMP4 1.5 nM added on day 4 or 6 after start of suspension culturing): no formation of non-neural epithelial tissue was observed
